Measured values reported in the domain aggregation screens of Martell et al. (2025).

Test: soluble fraction after stress (log2 fold change); higher = more stays soluble; pooled small domains, quantitative proteomics
Settings: stress: 50 degC
Outline: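 The measure of aggregation propensity here is the base-two logarithm of the fold change in the soluble amount of each protein after stress. A higher value means more of that protein stays in solution. Stress was applied at 50°C to pooled libraries of small protein domains, read out by high-throughput quantitative proteomics.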

Sequence	soluble fraction (log2)
HMEQPPVPSVSITAALGSAVARRLAPHGFQKMPDLVDAYRAGKLAQISGIGGTTLDLIREWLTANARQQ	0.0154
HMVQAQGARIREARVQRGLSQAQLGEPRYSGSYISHIENGRRSPGTDVLAFIAARLGLEPGALDS	-0.504
HMPSPEMLKETEKRKAEEIYRSQINLFIDDYHRLKGQYPLLEDIIDNKKDSIPIEILREISISILKNYFE	-0.242
HMDAHIGTLTPRERETLHHLAIGHSNKVIAKKLNLAESTVKAYVQSILRKLGLSSRVQAAVYAIQHDIR	-0.205
HMRQYKEMPYRLFLIHLGKGLVDEVELSDKAKLTGKLKNGKIFITDNPRTENFKEQLLLHDVKVKEG	0.12
HMDFYPARVKWFNKSKGFGFANIFKSNDDIFLHIETLKRSGLSDLETGEAIVLTVTEGPRGKMADTILTWD	-0.433
HMLEPGQKVKSVVVDISGDLIYIDLGGKTEGVVELKEFYDEAGEYHVKPGDEIEVFFVSVQNGLKRFTT	-0.0167
HMRYEESVTLGERLLNQSLVALKADNIDDALWERFLREEAGEKSRQEILSDIGLGKRLPVVVAKRLLAPS	0.0281
HMNGNLRAQVLELMGRADYEPLNKSELSRKLDLQGSDRSSLRILMDELERDHSVVRLKKGRFALKVV	-0.853
HMTLTLEQAAAIKNSEGEQYGKIESERLAAMSVQIDKAIKSNGHDPNKKADLERKLDAIGIILNARAAG	0.122
HMSQQMSYSDFVKAVSARQIREAQIQGDKIYATDSTGNRLTIIRLDNDQRLVDDMINNDVNIIGLEE	0.156
HMETYNLDVGDSAVLQYQNVSRISVGNPDVLDAIPLDKSQILLTGKATGGAALIVWDSKGMHMEKVMVHPA	-0.156
HMARSKSRQSSVLESVPGLGPSRRRNLLRHFGGLQGVVKAGVEDLMAVRGISRTLAETVYDHLHPGS	-0.289
HMEDYTPLQELGLKARYIELLEKGGIFSVEDLVQKSVDDLKDIDGIGEKTAKEIWEIVDSMVDF	-0.137
HMLFKNASGTVVSRIQSQVDGQINIRTGSGNAPDYAFVAKPDGAVELYHNGTKQFETGSSGVLLP	-0.274
HMEEKKYEVGDVVSFNYLYKNSFAEGKVSSLIHSGTITRIIDGRPAPYLINRGTGWLSNDLILT	-0.958
HMVDIGQSIRVELIREGKDSHQAVGYLRDGSMVVVNHGRKLIGSTVEVEITSIVPSSAGKVIFAEYLE	-0.378
HMDHTYKHIELTGSSEKGIEEAVQNALAKASESVQNMRWLEVTDTRGHIEDGRVAHWQVTVKVGFTL	-0.0248
HMGQVLEGVFRRKANGKNAFIPDGGGEPILVAERNSAHAMDGDRVKATLLARRKHHVREAQVTEILKRSSK	-0.0521
HMAKYEVVAKDIISRIKQNEFETTLKLPTEDEMIEYYQVSRNTVRSALKLLTSQGIIFSRQGSGFYIRQRS	-0.677
HMDNIGKTLGQNQTRQYKVAYAEAAKLPAIIMGLVPLPKPPVVDERLRSLYVTATPEQHRQIETLMNRI	0.11
HMDTGPSFATRRQEAFNALTQIAASNKEFMNVAGDVLWKVADFPEAQILAQRWRRIIPPNVLGEA	-0.193
HMQIEQVDYGTFMTMIDDKKIDKVEIKDNQILFIGKDDNKKYKTGIVQDPQLAERLHASGAVFSQDI	-0.136
HMEEKWKENYEKIKLFISINNRYPSVYSEDKEEGLIGSFMSNQKRRKNKLSKEKMALFEALPNWIWE	-1.72
HMYRYTTFKVKEADTLLPFIQKSLNGISHNRAKAILTGGGVLVDKKITRAYDFALRPGMTVEISKSKP	-0.103
HMEQVKFFDAKVITTPPNRLKTRYTPAGNLRPEADWLQSGAIVPVYETSGAGWYRIGYQTWASAEWMQRLD	-0.934

Sequence	soluble fraction (log2)
HMNDFVTVPDLQGIFYSEAIKKIDKMGLKEGSIQFVNQDKFLPNTVLNQNPKEGTKVSQDSPINLIIS	0.0352
HMSARRHAVKHLDANQLQTRVARMLSEFGLTAKVSKDPNSNALIIDGAPEAQRIAAQLITTIDKE	0.091
HMSTLTGTQRAAVVLMQMSPPNAARVMAQFTDAEAEEIAAEIVRLRKVDPEVAEQIMKDFHEAALSS	-0.252
HMSIGLEELVGSHGEAITDLRPAGQVSIAARRISAVSEGDFINKGDSVEVLSVEGYRVMVRKLET	0.00441
HMKIPQFAVIKQYLEQQIKTAQWAPGRQIPTEQSLADTFSVSRMTARRAVQQLADAGLLERTQGSGTFVAD	-0.145
HMRAPETEITYTEFKTALRAGQIETATVGIEQISGKLTDGDLYRTVRVDDPDLLKDLEANHVNAAGRV	0.104
HMDKNNLHSVLQDVPGIGPKRMKELMRAFGSVEGMKKAGLEELAAVKGMNHKAAEALIQFFR	0.199
HMVDEAQSLERNVLLTVLSRIGRDSRVVLTHDIAQRDNLRVGRHDGVVAVVDRLKGHPLFAHVTL	0.012
HMLQESDPEALRGIVKSVLVDHAAVAEEYRAGKQSVLQFLVGQGMKASKGAGNPGLIRDLMLEEL	-0.00903
HMEEILLSVKADGTYWVDQKEVTLDEVGALLDKEPDRLLNIFMDEKVPVRHFINVVDIAKVKREGRFII	-0.453
HMSKHLWNKVLPKVTTANITNLINQAIRKGEWRMDNKGVVHIIWRYRGKIIEVTGYLKDKVFNVGNAWVR	-0.122
HMDGVLVYKEGMTVADMATGLGKTIAQVVMKLMQLGIMANQNQSVDRETVELVALDFGYELKD	-1.76
HMKLPNGYGGIAKLSGKRRNPWRVRVTKGWSVDEQTGKAKQLFSTLGYYPTRKDALAALSAYNQNP	-0.942
HMRDSWNEATKEKRYTEAYDALNSALKKTPATPHALSDALWIARELGRTNEEVQRLEWRLYALLTWIS	0.0708
HMVSLRQQVYDYLRSQMNQGELRPGSAINLGEMSSRFGISRTPLREALLQLETEGFVTIYPRKGIIVN	-0.793
HMQNSPVFAASDIEDIRVGMTVEHQRFGQGRVMSIEGNGPNKKTTVLFEGIGEKQLLLQYAKLKIV	0.157
HMTPTPQQNNILVGQTGTTLTRLAPMGKVRVGEVTAEAKTIDGYINPRQSVEVIGFENTVVIVRAV	0.144
HMNEFSYLSELGSEKGDLIKGLQLVQSREGYVSDDAIRAISKHFSIAEAEVEGVLTFYAQFK	-0.572
HMSYQSYDKVVGDTFFEANLKAESKFGKGNFEIISTRRVKHPIYLGFGHKELVELTIGIHDP	-0.308
HMGHEEPITFDRLPQAAQTFLKTHFDTLTVAYIVADRKFMGVEYEVKYTDRTEVDFRSDGQWESV	0.0592
HMKFGETLIDLRKRNGLTQEELAAKLYVTRQAVSRWERGEVTPGIDMLKLIANVLNEPVAHLLDW	-0.977
HMRGDQLREHLLWTAKDVFLELGFERASMDAVAARAETSKRSLYAHFESKEKLFLAVIDLVRG	-3.67
HMDVAAQITYAMRTMGVAPIPRNYELFYEAYIGSNPALTKELAALGSKATQEELDELGQQYF	-1.93
HMSKASLFFLFNHKDELYIVDNNHVQDVPKPRELIRRFSTIEQIREHALHLGLPIANDTARE	-0.723
HMGDSEMPVSEVVRLAKLDQISSIEISGTKLTIITNNLETYTSRIEENSTIIEILQRAGVDIGGLEIYPHG	-0.492
HMSSKRDQFIVLGQEILEKMFKNEGLEFSEKGLLAVMPNFEAESINDIYAKVGEGLISGWDVMKAVYPAY	-0.133

Sequence	soluble fraction (log2)
HMRSPVDALSNRELQVLQMVGRGLSSRQVAEALHLSVKTVEAHRQRIKGKLGLRTGAQLVQFAANWVTG	-1.27
HMGEIILVPDVKAQGVSDARYTLNQAGLDAVIADSSYNRNSPPGAVLEQMPAPGSKVKSGHAIYLIINTT	0.053
HMALALSGVDLNRNRLTISWQTSKGVSYRVQRSSDLQSWTDVGAERLGNGNRLSHTQALNTESAFLRVII	-0.0897
HMPQTDDSEPLGKYGRMRLAYLKNQRPVLYNQMLLNGTLWPHLQDVQKTAYEWLERTMTTLLDK	-0.0745
HMKRDNETRRRIVAAAEELFRAKGLDGVNMRELAEMAGVNKGLLHYYFKTKQALFREILVGQMAL	-1.05
HMKAKPTLLTPYEERLKGWLETDSRRPKRDRRTGLALFAKLQQEGFTGSYTRVTEYIRRWRDSGG	-3.01
HMVDSVIGSVGRVTVDIDNVEALGQVKLGGMEWSARSTSGDPIPAGTEVRVDRVEGVKVFVTPV	-0.00113
HMVLAEPLSERELDILRLLAAGDSNKEIAAVLYITEGTVKNHVTNILGKLDARDRTQAALRARELGL	-0.801
HMLLNSLIDTLAAEKATVVPGTEVFKLYDTYGFPWELTEEIASERGFTIDHEGFEAAMKEQRERAREARV	-0.0257
HMSGFPTDAQIVREIRNILPTLENPTPRMVRKALENTFEVDMGESKTKKYINNIIITEYEKWSSVQSIRE	-0.534
HMGLNLIGLKRSGFAPEEVKAMTRAYMYIFKSAEGNFESRLAKAHEKYKDDALIMEMVEFIDDALKG	-0.906
HMNPSVSSDERILLQKALGILSAEQKQIVMLHAVAGIKHREIAKLLDMPIATVLSKYSRAVNKLRHAMEA	-0.423
HMEGNAFASTGDPEADILDITAVHPMRRDAVEELLARSGAEWSLVEGMLRDGKITMAPWEGEEFFIRS	0.0467
HMQIVPVDYSTFMQSIDDKTVDHVEIQSNQILYTVKDDHKKYKTGIMNDPTLAQRLMESGATFTQD	0.0939
HMTSMYYLNKAVKEGNAKAIRQLLSAGININVRKRETSTPLDFAIKYKQTEIADLLRKHGGKTAEELKAEE	-0.343
HMPSTVSVPDVAGSSLSEAKTTIKSSGLKVGTVHKVSSDTVESGYVIKTSPTAGSSKKEGSSIDIYVSKG	0.432
HMWNTADDIKEAIWKLIQSEDPKKPYSDLKISQLLLEKEMKISRRTVAKYRKEMGILGTYSRK	-0.347
HMLSLDDAAFERYDLTMREREVLLLLLNRLTYEEIAERLFISTNTVKTHVGNVYKKTGVSSRKELVSK	-1.08
HMSTPERQEVLDILKRQGEMTPLQIAGQISRTSKSVSNILSKLKREGFVANGAKYGSWVSTES	0.0492
HMEDIAAIAQRIQGLRDIVGISVEEMAKALDISEQEYREYEKGETDFSFSFLYTVANVLGINITDLI	-0.709
HMATAATGIINNNYVNVRSGPATTYNIVGRLDQGSSIEILGSKNDWYQIKTKQLNGWVKNDFINLQK	0.00222
HMKPTGWVRGDMGVVDKGQLSITQGTVNVRSGPGLSYEILDQVRRGDRFPVIKSQSGWHNISM	0.0818
HMNEIESFSNTKNPFSLTFKTSKDSSYKVEASSNLKKWTTLSQIKGTGNPITFTESRRILFRKQYYRVTLS	-0.197
HMATKVNSGVTVRDLAELLGLSSADLIKKLMTMGEMATLTQTLTDDSVKAIADEYDRKIEIVSAAQ	-0.0488
